{
  "source": "paper PMC3206844",
  "key": {"[1]": {"target": "Visinin-like Protein 1 (VILIP-1), unmyristoylated (human) (UniProt P62760)", "test": "small-angle X-ray scattering (SAXS); 12 mg/mL (542 uM) VILIP-1, 100 mM NaCl, 5 mM CaCl2, 2.5 mM DTT, 20 mM HEPES pH 7.5, 20 °C; mass from forward scattering, ab initio shape"}, "[2]": {"target": "Visinin-like Protein 1 (VILIP-1), unmyristoylated (human) (UniProt P62760)", "test": "SEC; Sephadex 200 column, 100 mM NaCl, 20 mM HEPES pH 7.5, 0.5 mL/min; samples with 0.1 mM EDTA or 5 mM CaCl2, non-reduced or reduced with 2.5 mM DTT; monomer and dimer peaks"}},
  "data": [
    {"substance": "Visinin-like Protein 1 (VILIP-1), unmyristoylated (from UniProt P62760 1-191) (natural protein)", "values": [
      {"measurement": "stoichiometry N", "setting": "[1]", "value": 2},
      {"measurement": "stoichiometry N", "setting": "[2]", "value": 2}
    ]}
  ]
}
